The results in this text go back to US20240052381A1, “BIOSYNTHESIS OF VANILLIN FROM ISOEUGENOL” (BASF SE, priority 2020, published 2024).

A short description of this data set: In vitro enzyme assay: formation of vanillin with isoeugenol as the substrate. The following applies: purified recombinant protein; 10 mM isoeugenol, pH 7.0, 30° C., 10 min; negative control heat-denatured enzyme gave no vanillin. Type of data set: biochemical. The method, then:
The enzyme activity of the putative isoeugenol monooxygenase was assayed by measuring the formation of vanillin with isoeugenol as the substrate. The reaction mixture contained 10 mM isoeugenol, 100 mM potassium phosphate buffer (pH 7.0), 10% (v/v) ethanol and an appropriate amount of enzyme, in a total volume of 1 ml. The reaction was started, by adding isoeugenol as ethanol solution, carried out at 30° C. for 10 min with reciprocal shaking (160 strokes min^−1) and stopped with the addition of 1 ml of methanol. After centrifugation at […], the supernatant was analyzed by HPLC for the determination of isoeugenol and vanillin and vanillyl alcohol. VpIEM enzyme treated in boiling water for 5 minutes was used as the negative control.
HPLC analysis of isoeugenol and vanillin was carried out with a Vanquish Ultimate 3000 system. Intermediates were separated by reverse-phase chromatography on a Dionex Acclaim 120 C18 column (particle size 3 μm; 150 by 2.1 mm) with a gradient of 0.15% (volume/volume) acetic acid (eluant A) and methanol (eluant B) in a range of 60 to 100% (vol/vol) eluant B and at a flow rate of 0.4 ml/min. For quantification, all intermediates were calibrated with external standards. The compounds were identified by their retention times, as well as the corresponding spectra, which were identified with a diode array detector in the system.

B1: VpIEM: putative isoeugenol monooxygenase from Violaceomyces palustris, expressed in E. coli and purified (protein, listed as Violaceomyces paulstris)
chain: MAPAPTVQDAAPVAVAVPSKATNKGSFVHPTDILPSGWPTATDLSGGAQPRRFEGTIYDVMVRGTIPKELHGTFYRIMPDYAEAPTYYKGGELNAPIDGDGTVAAFRFKDGNVDYRQRFVETDRFKVERRARKSMYGLYRNPYTHHPCVRQTVDSTANTNVVMHAGRFLAMKENGNAYELDPHTLKTLGYNPFKLPSKTMTAHPKQDAVTGNLVGFGYEAKGLATKDVYYFEVDTQGNIVHDLWLEAPWCAFIHDCALTPNYLVLMLWPFEADIERMKAGGHHWAYDYDKPITWITIPRGAKSKDEVKYWYWKNGMPIHTAAGYEDEKGRIIIDSSLVHGNAFPFFPPDSEEQRKRQEADGTPIAQFVRWTIDPSKDPNERLPDPEVVLDTPSEFPQIDNRFMGKEYSSAFINVFMPDRSDTGKNVFQGLNGLCHYRRKEGTADFYYAGDNCLIQEPVFSPRSKDAPEGDGFVLAIVDRLDANRSEVVIIDTRDFTKAVAAVQLPFAIRSGIHGQWIQGNTIPDFDTRGLVDLPKEEHWAPPEASAYDPNM
modifications: (1)..(551) Amino Acid Sequence of VpIEM
With B1, the “conversion of isoeugenol to vanillin (enzyme activity, HPLC)” value was “able to catalyze the conversion of isoeugenol to vanillin”.
